Experimental data as given in patent US12077763B2, “RNA-based control of powdery mildew” (Greenlight Biosciences, Inc., priority 2021, dated 2024).

Tested on: E. necator
Test: Leaf disc assay, dry inoculum (settling tower), decrease in disease severity / hyphal growth (Example 2)
Conditions: decrease in disease severity (hyphal growth) relative to untreated control, value ± SE; for % decrease =/− SE TP1: time point 1 (untreated control hyphal growth ≥50%); for % decrease =/− SE TP2: time point 2

Molecule | % decrease =/− SE TP1 | % decrease =/− SE TP2
GS3467 (nucleic acid) sense: CCCAGCUUCAUUAGAGUGGUCAAAGAAACCAUUGUAGGUGUGAAUAGGAGGCUGAACUAGAGAUAAGAUGGUAUUAUGCAGAAUAUGACAAGUAGGAUUGCAUUGCUUAUCUUUAAUAAUCUCUCUCUUAAUUGUUAUCUUAGAAGCAAAGUUAGUUUCAUCAUCGCUUAAUUUUAAAUUAAUAAGUGAAACUUUGCUUCCAUAAGGUGAGCUACAAGGUGAUGGCUGAAUUAAAUCUUCAACUUUUUUAUUAUCAGUCCUUAUUUCUAGGUCAUAUGACCUAGAAUCUUCUAUAAAUUUUCUAAGCUUAUUUGAAGAAUCCUUAGUAGGUGUUUUUGCAAUGAAACGAUUAUUUUCUUCAGGUAAGAUUGUAGCGACGCUAACCGAUGACUCAGU antisense: ACUGAGUCAUCGGUUAGCGUCGCUACAAUCUUACCUGAAGAAAAUAAUCGUUUCAUUGCAAAAACACCUACUAAGGAUUCUUCAAAUAAGCUUAGAAAAUUUAUAGAAGAUUCUAGGUCAUAUGACCUAGAAAUAAGGACUGAUAAUAAAAAAGUUGAAGAUUUAAUUCAGCCAUCACCUUGUAGCUCACCUUAUGGAAGCAAAGUUUCACUUAUUAAUUUAAAAUUAAGCGAUGAUGAAACUAACUUUGCUUCUAAGAUAACAAUUAAGAGAGAGAUUAUUAAAGAUAAGCAAUGCAAUCCUACUUGUCAUAUUCUGCAUAAUACCAUCUUAUCUCUAGUUCAGCCUCCUAUUCACACCUACAAUGGUUUCUUUGACCACUCUAAUGAAGCUGGG | 25 ± 4% | 13 ± 7%
GS3474 (nucleic acid) sense: UAAGCAAUUUGAUGAUGAUCAUUAUGGUCUGGAGAAAGUCAAGAAAAGACUCCUUGAAUAUUUAGCGGUUCUCAAACUAAAGCAAUCAAUAAAUCAAGACAUUGACAUCAAGAUUAAGAAGGCAUCUGAAGAAAGAGCACAUGAAAAACUAGAAAUCUUAAAAAGUCAGAGAAUGGUUGAUAAAUCGCCUAUCUUGCUACUCGUUGGUCCUCCAGGUGUAGGUAAAACAAGCCUCGCAAAAUCUGUUGCAACAGCACUUGGUCGUAAAUUUCAUCGAAUUUCUCUUGGUGGUGUUCGGGAUGAGGCUGAAAUUAGGGGACAUCGUCGUACUUACGUUGCAGCUAUGCCAGGCCUCAUAAUUCAAGGGCUUAAGAAAGUUGGAGUGUGCAAUCCCGUUUUUCUUUUAGAUGAAAUUGAUAAAAUUGGGAGUUCUAAUUUCCAAGGUGAUCCUAGCGCUGCAAUGCUCGAAGUCCUCGAUCCAGAGCAGAAUCACAGUUUUACAGACCACUACGUCAAUAUUCCAGUAGACCUUAGCAAAGUUCUGUUUAUCGCUACUGCAAAUAGUCUGGAUACUAUUUCACCACCACUCUUAGACAGA antisense: AAUGACAUGGAUUAUGUUGAACAUCAUUUUGGUCCUGCAGGCUUAAAUCGACAGGACAUUGUCCAUACAUACAGAACUCUUAAUGCAAAGAUUAUUAAAGCUGACCUCCUUCGUUAUUUGAUUAUGUAUGUGGAAGGAGGUCUAUACGCUGACAUUGAUGUCGAAGCUUUACGUCCAAUUGAACGUUUUAUUCCAGAGCGAUGGAACGAGAAAGACAUUGAUAUGAUUGUAGGGGUCGAGAUUGAUAUGCCGCAUUAUUCCGAUCACCCUAUUCUUGGUCCUAAAUCUAAAUCAUUUUGCCAAUGGACAUUUAUGUGCAAGCCACGUCUACCGGUGAUGAUGCAAUUAAUUGAUAAUAUUAUCGUCUGGCUCAAUCAGCUUUCCCGA | 17 ± 5% | 9 ± 8%
GS3472 (nucleic acid) sense: UUAUUUGUGGCGACCUACCGAAAAUAAUCGAAGAUUCGCAAUGAGUGAUGAGUUAGCACAGGACGAUGAAGGUUUUGAAAUAUCCGACUUUGGAGUUGAAGACGAUGAAAUAGAGUCUACUAUAGGCCAAAAAGAAGAUAGAGAUCAAAGGCCAGAAGAGACGAGGUACAAUCCUGCGCCGAAAAAUUCCGGACGAAAGACUGUAAAAAAUACAACACGUGAGAGCUUAGAAAGAGAAACGAUAUUUACUGUUGGUGAAGACGGGGACAAAUGGUCAAAUAAUGAUAGUGACGAGGAGCAUGUUAAUCUCGUUAGUGGGUCAAACAAGCCUUCUUAGAUUUACGACAAUUUUUUU antisense: AAAAAAAUUGUCGUAAAUCUAAGAAGGCUUGUUUGACCCACUAACGAGAUUAACAUGCUCCUCGUCACUAUCAUUAUUUGACCAUUUGUCCCCGUCUUCACCAACAGUAAAUAUCGUUUCUCUUUCUAAGCUCUCACGUGUUGUAUUUUUUACAGUCUUUCGUCCGGAAUUUUUCGGCGCAGGAUUGUACCUCGUCUCUUCUGGCCUUUGAUCUCUAUCUUCUUUUUGGCCUAUAGUAGACUCUAUUUCAUCGUCUUCAACUCCAAAGUCGGAUAUUUCAAAACCUUCAUCGUCCUGUGCUAACUCAUCACUCAUUGCGAAUCUUCGAUUAUUUUCGGUAGGUCGCCACAAAUAA | 28 ± 5% | 22 ± 6%
GS3478 (nucleic acid) sense: ACCGUCCUGAAAGUAAAGGUGAAAAGAAAGAGCGUCUUCUCAAGGAAGCUACAGCUAUUAAAAAUGGCAACAAGGAGGAUGUCAGUAAGAAGCCAUACACAGUAAAGUAUGGACUCAAUCAUGUCGUUGGUUUGGUUGAGAAUAAGAAAGCUUCUCUAGUCUUAAUACCCAAUGAUGUCGAUCCUAUAGAGUUGGUUAUAUUUCUUCCAGCUCUUUGUCGAAAGAUGGGAGUUCCUUAUGCUAUCAUUAAAGGAAAAGCUAGACUUGGUACUGUUGUACACAAGAAAACUGCUGCUGUAUUGGCAAUAACUGAAGUUCGAUCCGAAGAUAAAUCAGAGCUAUCAAAAUUAAUCCAAGCUAUUAAAGAAGGCUACUCUGAGAAAUAUGAAGAAGCUAAG antisense: CUUAGCUUCUUCAUAUUUCUCAGAGUAGCCUUCUUUAAUAGCUUGGAUUAAUUUUGAUAGCUCUGAUUUAUCUUCGGAUCGAACUUCAGUUAUUGCCAAUACAGCAGCAGUUUUCUUGUGUACAACAGUACCAAGUCUAGCUUUUCCUUUAAUGAUAGCAUAAGGAACUCCCAUCUUUCGACAAAGAGCUGGAAGAAAUAUAACCAACUCUAUAGGAUCGACAUCAUUGGGUAUUAAGACUAGAGAAGCUUUCUUAUUCUCAACCAAACCAACGACAUGAUUGAGUCCAUACUUUACUGUGUAUGGCUUCUUACUGACAUCCUCCUUGUUGCCAUUUUUAAUAGCUGUAGCUUCCUUGAGAAGACGCUCUUUCUUUUCACCUUUACUUUCAGGACGGU | 29 ± 4% | 13 ± 9%
GS3477 (nucleic acid) sense: CCUCUCGCCAUUAAAUACUCAUAAAAUAUCCGCACGUACAGUUCUCUUCACUUCGGUACCUGCUAAAUACAGAGAUGAAUCUAAAUUACGUCAGAUAUUUGGCUCAUGCGUGAAAAAGGUUUGGAUAACAAAAGACAGUUCAGAGGUUGACGACCUUGUAUCUGAGCGCGACGAUCUCCUACUAAGAUUAGAAUCAUCUGAAGUUAAGCUUAUUAAAAUUGCAAAUACAGAGAGACUCAAGAUUAACAAGAAAAAAGCUGGAGAUAAUAACUCAUCAUCUGAAGUCGCAGCUCCUGUCCCAGCAUCUCUAGUUGACUACUGGGUUCCAGAAAAUAAGCGUCCGACUCAUAAGCUUGGCUUAUUUGGGCUAGUUGGACAGAAAGUUGAUACGAUUAAAU antisense: AUUUAAUCGUAUCAACUUUCUGUCCAACUAGCCCAAAUAAGCCAAGCUUAUGAGUCGGACGCUUAUUUUCUGGAACCCAGUAGUCAACUAGAGAUGCUGGGACAGGAGCUGCGACUUCAGAUGAUGAGUUAUUAUCUCCAGCUUUUUUCUUGUUAAUCUUGAGUCUCUCUGUAUUUGCAAUUUUAAUAAGCUUAACUUCAGAUGAUUCUAAUCUUAGUAGGAGAUCGUCGCGCUCAGAUACAAGGUCGUCAACCUCUGAACUGUCUUUUGUUAUCCAAACCUUUUUCACGCAUGAGCCAAAUAUCUGACGUAAUUUAGAUUCAUCUCUGUAUUUAGCAGGUACCGAAGUGAAGAGAACUGUACGUGCGGAUAUUUUAUGAGUAUUUAAUGGCGAGAGG | 28 ± 4% | 7 ± 8%
